Source: US8030017B2, “Thermostable luciferases and methods of production” (Promega Corporation, priority 1997, dated 2011)

How the values were obtained:
[1] = Thermostability (half-life, retained activity) of luciferases incubated in aqueous solution at different temperatures; type: physicochemical; details: purified enzyme
From the text: As defined herein, a “thermostable” enzyme, e.g., a luciferase, or an enzyme which has “thermostability”, is an enzyme which under certain conditions, e.g., at certain temperature, in aqueous solution and/or for certain periods of time, has an increased retention of activity relative to a reference enzyme. For example, for a thermostable luciferase, a reference luciferase may be native wild-type luciferase or recombinant wild-type luciferase. Preferably, for beetle luciferases, the activity is luminescence under conditions of saturation with luciferin and ATP. One measure of thermostability of an enzyme is the half-life of the enzyme in an aqueous solution (the time over which 50% of the activity is lost) at a stated temperature.
(§1) Protein purification: Four mutants that are described herein (Luc[T249M], Luc49-7C6, Luc78-0B10, and Luc90-1B5) were purified using a previously published procedure (Hastings et al., 1996).
[…] Enzyme stability was determined from diluted proteins incubated at different temperatures, and aliquots were removed at different time points. A linear regression of the natural log of the luminescence and time was calculated. Half-life was calculated as the 1n(0.5)/slope of the regression.

[2] = Michaelis-Menten constant for luciferin of purified mutants; type: biochemical; details: purified enzyme
From the text: (§2) Substrate binding was screened by measuring an apparent composite Km (see Example 2) for luciferin and ATP. […] The Km for luciferin rose while the Km for ATP declined (Table 3). The reason for this change is unknown, although it can be speculated that more efficient release of oxyluciferin or luciferin inhibitors could lead to more rapid enzyme turnover.
as §1

[3] = Michaelis-Menten constant for ATP of purified mutants; type: biochemical; details: purified enzyme
From the text: as §2, §1

[4] = test system: colonies of E. coli; experiment: In vivo luminescence of recombinant colonies of E. coli (visual screen); type: cell-based
From the text: Five to seven nitrocellulose disks having 200-500 colonies per disk (1000-3500 colonies total) are screened per 2 microplates (176 clones) (Wood and DeLuca, 1987). The clones are screened at high temperatures using standard screening conditions.
Screening method: In the qualitative visual screen, colonies were selected only for their ability to sustain relatively bright luminescence. The thermal stability of the luciferase within the colonies of E. coli was progressively challenged in successive rounds of evolution by increasing the temperature of the screen. The selected colonies were inoculated into wells of 96-well plates each containing 200 μl of growth medium.
JM109 clones (from a transformation reaction) are plated onto nitrocellulose filters placed on LB amp plates at a screening density of about 500 colonies per plate.
The nitrocellulose filter is lifted on one side and 500 μl of 10 mM IPTG is added to each of the plates. The filter is then placed back onto the plate to allow diffusion of the IPTG into the colonies containing the different mutant luciferase genes. The plates are then incubated for about 4 hours at room temperature.
One (1) ml of a solution contains 1 mM luciferin and 100 mM sodium citrate is pipetted onto a slide warmer that is set at 50° C. […]

[5] = Robotic thermostability screen of LucPpl mutants: decrease of activity over 10 hours at screening temperature; type: physicochemical
Description: “Enzyme stability” was determined by the rate of activity loss from cell lysates over 10 hours. In successive rounds of evolution the incubation temperature of the lysates was increased.
To prepare luciferases having certain performance, a method for in vitro evolution of enzyme function, as described above, was employed. Briefly described, the method is a recursive process of generating random mutations and screening for desirable properties. It was originally developed primarily to increase the thermostability of luciferases, although other enzymological characteristics are also subject to optimization by the screening criteria. A slightly different strategy was used to achieve the properties described above since two related luciferases needed to be optimized concomitantly.
The luciferases from P. plagiophthalamus have 13 cysteines, which are potentially sensitive to oxidation. This is in contrast to the commonly used firefly luciferase, which has only 4 cysteines. To remove any cysteines that may limit enzyme stability, oligonucleotide-directed mutagenesis was used to randomize the cysteine codons. Three sets of oligonucleotides were used: non-conserved cysteines in regions of low sequence homology (positions 69, 114, 160, 194, 335, and 460), non-conserved cysteines in regions of higher sequence homology (positions 127, 213, 310, and 311), and highly conserved cysteines (positions 60, 80, and 388). […]
The random mutagenesis process was repeated using the best clone from the previous cycle of mutagenesis (Luc53-0G01). […] The discrepancy in measured activity of Luc53-0G01 in this cycle of mutagenesis compared to the previous cycle may be due to changes in the assay procedure and recalibration of the incubator temperature. It should be noted that the recorded thermostabilities from each stage of mutagenesis are calculated from robotic data using abbreviated assay procedures. The data are intended to indicate the relative stabilities of enzyme mutants when assayed in the same screen, rather than providing an accurate quantitation of thermostability.

[6] = Retention of luminescence activity at pH 4.5 and 48° C.; type: physicochemical; details: for thermostability relative to Luc90-1B5: pH 4.5 and 48° C.; for half-life: pH 4.5 and 48° C. (FIG. 54B)
Description: Three populations of random mutants were produced using clone Luc90-1B5 as a template. These three populations were screened on the robot as experiments 114, 115, and 117. […] These screening conditions were biased to select clones that have increased retention of luminescence activity over time at pH 4.5 at 48° C. and increased luminescence activity when assayed at pH 7.1 with 10 μM ATP. Seventeen clones from experiment 114, seven clones from experiment 115, and ten clones from experiment 116 were shuffled together using sPCR and selected mutants from this screen were run on the robot as experiment 117. Eighteen clones were selected from experiment 117.

[7] = Assay to detect resistance to luciferase inhibitor (luciferin breakdown products); type: biochemical; details: luciferin degradation products (FIG. 61)
Description: A 10 mM stock solution of luciferin is incubated at 50° C. in 50 mM HEPES, pH 7.8, to accelerate the production of luciferin breakdown products. At different time points an aliquot is removed and then placed at −20° C. After incubation is complete, assay reagent (100 μM Luciferin, 1 μM ATP, 50 mM HEPES, pH 7.8 and 8 mM MgSO4) is prepared with luciferin from each of the different time points and a diluted lysate is then assayed with each assay reagent.
The lysate is prepared as follows. Overnight cultures of clones to be tested are prepared in LB supplemented with 100 μg/ml AMP. The cultures are diluted 1:10 in M-9 minimal media supplemented with 1 mM IPTG, 100 μg/ml AMP and grown for 3 hours at 30° C. Forty-five μl of cells is mixed with 20 μl of Buffer A and frozen. The mixture is thawed, 175 μl of Buffer B added, and the resulting mixture diluted 1:10 in Buffer C. A regression of luminescence versus time of luciferin incubation is then calculated, and from this graph half-life is extrapolated. A longer half-life means that the mutant being tested is more resistant to luciferin breakdown products.

B1: LucPpe2[T249M]: LucPpe2 firefly luciferase (Photuris pennsylvanica) with mutation Thr to Met at residue 249, SEQ ID NO:25 (protein)
chain: MEDKNILYGPEPFYPLADGTAGEQMFYALSRYADISGCIALTNAHTKENVLYEEFLKLSCRLAESFKKYGLKQNDTIAVCSENGLQFFLPLIASLYLGIIAAPVSDKYIERELIHSLGIVKPRIIFCSKNTFQKVLNVKSKLKYVETIIILDLNEDLGGYQCLNNFISQNSDINLDVKKFKPNSFNRDDQVALVMFSSGTTGVSKGVMLTHKNIVARFSHCKDPTFGNAINPTTAILTVIPFHHGFGMMTTLGYFTCGFRVALMHTFEEKLFLQSLQDYKVESTLLVPTLMAFFAKSALVEKYDLSHLKEIASGGAPLSKEIGEMVKKRFKLNFVRQGYGLTETTSAVLITPDTDVRPGSTGKIVPFHAVKVVDPTTGKILGPNETGELYFKGDMIMKGYYNNEEATKAIINKDGWLRSGDIAYYDNDGHFYIVDRLKSLIKYKGYQVAPAEIEGILLQHPYIVDAGVTGIPDEAAGELPAAGVVVQTGKYLNEQIVQNFVSSQVSTAKWLRGGVKFLDEIPKGSTGKIDRKVLRQMFEKHKSKL
modifications: Mutant luciferase
Thermostability Of Luciferase Activity (Half-Life In Hours) ([1]; 37° C.): 35.4 min
Thermostability Of Luciferase Activity (Half-Life In Hours) ([1]; 50° C.): 0.6 min
Thermostability Of Luciferase Activity (Half-Life In Hours) ([1]; Room Temperature (about 25° C.)): 6600 min
Km [2]: 0.32 µM
Km [3]: 18 µM
light produced in vivo when expressed in E. coli, relative to LucPpe2 [4]: approximately 5 fold

B2: Luc30-4B02: LucPplYG mutant, first cycle of random mutagenesis (protein)
chain: MMKREKNVIYGPEPLHPLEDLTAGEMLFRALRKHSHLPQALVDVVGDESLSYKEFFEATVLLAQSLHNCGYKMNDVVSICAENNTRFFIPVIAAWYIGMIVAPVNESYIPDELCKVMGISKPQIVFTTKNILNKVLEVQSRTNFIKRIIVLDTVENIHGCESLPNFISRYSDGNIANFKPLHFDPVEQVAAILCSSGTTGLPKGVMQTHQNICVRLIHALDPRAGTQLIPGVTVLVYLPFFHAFGFSITLGYFMVGLRVIMSRRFDPEAFLKAIQDYEVRSVINVPSVILFLSKSPLVDKYDLSSLRELCCGAAPLAKEVAEVAAKRLNLPGIRCGFGLTESTSANIHSLRDEFKPGSLGRVTPLMAAKIADRETGKALGPNQVGELCIKGPMVSKGYVNNVEATKEAIDDDGWLHSGDFGYYDEDEHFYVVDRYKELIKYKGSQVAPAELEEILLKNPCIRDVAVVGIPDLEAGELPSAFVVKQPGKEITAKEVYDYLAERVSHTKYLRGGVRFVDSIPRNVTGKITRKELLKQLLEKAGG
modifications: Mutant luciferase
notes: LucPplYG mutant, first cycle of random mutagenesis
decrease of activity over 10 hours ([5]; 41° C.): 63 fold
decrease of activity ([5]; 42° C.): greater than 2000 fold

B3: Luc133-1B2: mutant luciferase, SEQ ID NO:44 (protein)
chain: MADKNILYGPEPFYPLEDGTAGEQMFDALSRYADIPGCIALTNAHTKENVLYEEFLKLSCRLAESFKKYGLKQNDTIAVCSENSLQFFLPVIASLYLGIIVAPVNDKYIERELIHSLGIVKPRIVFCSKNTFQKVLNVKSKLKSIETIIILDLNDDLGGYQCLNNFISQNSDSNLDVKKFKPYSFNRDDQVALIMFSSGTTGLPKGVMLTHKNIVARFSIAKDPTFGNAINPTSAILTVIPFHHGFGMMTTLGYFTCGFRVVLMHTFEEKLFLQSLQDYKVESTLLVPTLMAFLAKSALVEKYDLSHLKEIASGGAPLSKEIGEMVKKRFKLNFVRQGYGLTETTSAVLITPKGDAKPGSTGKIVPFHAVKVVDPTTGKILGPNEPGELYFKGPMIMKGYYNNEEATKAIIDNDGWLRSGDIAYYDNDGHFYIVDRLKSLIKYKGYQVAPAEIEGILLQHPYIVDAGVTGIPDEAAGELPAAGVVVQTGKYLNEQIVQDYVASQVSTAKWLRGGVIFLDEIPKGSTGKIDRKVLRQMLEKHTNG
modifications: Mutant luciferase
thermostability relative to Luc90-1B5 [6]: increased thermostability
half-life [6]: about 20 minutes
resistance to inhibitor relative to Luc90-1B5 [7]: increased resistance to inhibitor

B4: Luc146-1H2: mutant luciferase, SEQ ID NO:45 (protein)
chain: MADKNILYGPEPFYPLEDGTAGEQMFDALSRYAAIPGCIALTNAHTKENVLYEEFLKLSCRLAESFKKYGLKQNDTIAVCSENSLQFFLPVIASLYLGIIVAPVNDKYIERELIHSLGIVKPRIVFCSKNTFQKVLNVKSKLKSIETIIILDLNEDLGGYQCLNNFISQNSDSNLDVKKFKPYSFNRDDQVASIMFSSGTTGLPKGVMLTHKNIVARFSIAKDPTFGNAINPTSAILTVIPFHHGFGMMTTLGYFTCGFRVVLMHTFEEKLFLQSLQDYKVESTLLVPTLMAFLAKSALVEKYDLSHLKEIASGGAPLSKEIGEMVKKRFKLNFVRQGYGLTETTSAVLITPKGDAKPGSTGKIVPLHAVKVVDPTTGKILGPNEPGELYFKGPMIMKGYYNNEEATKAIIDNDGWLRSGDIAYYDNDGHFYIVDRLKSLIKYKGYQVAPAEIEGILLQHPYIVDAGVTGIPDEAAGELPAAGVVVQTGKYLNEQIVQDYVASQVSTAKWLRGGVKFLDEIPKGSTGKIDRKVLRQMLEKHTNG
modifications: Mutant luciferase
thermostability relative to Luc90-1B5 [6]: increased thermostability
half-life [6]: about 62 minutes
resistance to inhibitor relative to Luc90-1B5 [7]: increased resistance to inhibitor
